Reference: the DeepSol protein solubility set

Assay: soluble on expression in E. coli; label from the status in PepcDB or PDB records

| Sequence | soluble on expression in E. coli |
| --- | --- |
| MLNVVKRDGRQVVFDSNKIFNAIKGAADEIGYDIKQSDILELTQKVIGRVEDLKIREISVEEVQNLVEEVLLENGNKEIGMAYCTYRKERTKVRE | not soluble |
| GPGSMADVADPSSELINELRALVVSGSGLVPLDERKVHTVVENMTDAFRHLESISRNPFADPSQPYYSGAMRFYKAKCLRDKRCVVAYLLWRQSQITKSWWEARDNTISNMLAPCERTFLQDYNDVMVEYMTSFAVPLDLRSFTWRPPSTQQLEVRGLVNHVFVSSITGAVINLYKGKQILLGFEEAESLIQQGVVELVE | not soluble |
| MAQKISINRGLGLGMAQLGAFARMGMMINVSAMGPQDGHANGGVGEGGIEMSRKSTWRSENDEIKTRKSTAFEPDLDFDMIDFRQPSGSSQYLYGFGFDNNAFGLADGQSDEDSVFM | not soluble |
| MVLLHHQPLGSHHATTSGGSLLERADLSHPIPENARKLAQLVEYDESRVELGTHSVFVREARPPGAHYSKATVIFLHGQSFSSSTWTENNLLRTFAALGYRAIAIDLPGSGQTRGAAIPQAEKPNFLMDFIETLGLKQVMIVCASMAAQYVLPLMTSTRHLSCVVLVAPSNTHEVVSPSSYTVPTLVVWGERDTSLGPTAAANLKNLPQVKLQKIPDAGHACYLHNPKCFENLCVNFFDLIRSYHH | not soluble |
| MARIRARGSACPSQCSCSGTTVDCSGKSLASVPTGIPTTTQVLYLYDNQITKLEPGVFDRLTQLTRLDLDNNQLTVLPAGVFDKLTQLTQLSLNDNQLKSIPRGAFDNLKSLTHIWLLNNPWDCACSDILYLSRWISQHPGLVFGYLNLDPDSARCSGTNTPVRAVTEASTSPSKCPG | soluble |
| MGSDKIHHHHHHMAKSDLIVGLDIGTTKICCVVGEPTEEGIDIVGIGTSPSTGLRKGVVVNIEQTVQSIKKALEEAELMAGCEIRSVYAGIAGSHIKGANSDGVIAVKGGEVAPRDVERVLDAAKALNIPMDREVIHILPQEYIVDEQRGIADPLGMAGVRLEVKVHIVTGAVASAQNIVRSCHRSGLDVSDIVLEALASSKAVLTEEEREIGVALVDLGGGTTDIAVFANDSIKHTGVLALGGQNLTNDIAFGLRTPMASAEKIKIKYGCAMAEMVRDDEGIEVASVGDREPRRLSRQVLAEICEPRMEEILSLVDQELVRYGFKNMIGAGVVLTGGTALIEGCQELGEQIFNLPTRIGYPRNVGGLKDVVNSPKFATAVGLLCYGAEKEGLELKFRIRDGNMFNRVLSRMRKWFSDIS | not soluble |
| AKDWKWNLNWNGALNKNKVVSLPDNGLERNRQSAYQVYTGNGDEKKWVGGYQEGQRPGDLYMFVAEGLYKSQDEIPANLIDLTTGNNGSSGRPLYGGAEGYNKLTDSQKSNALPIQPGDVKWKDVNNDGVIDNYDMVKVGNTVPKWTGGINTTVSWKDLTLSARFDYALGFTAVDWKTMWIMSCAQGTYNTIEETKNTWTPENPNAKYPTYVWADQLGKRNYCRSSSMFAYNGNYIALRELSLSYKLPSILVQKAKLSNVELSITGQNLGYLTEAKHLFSPEKADNNGGYPLPRTVIFGINVSF | not soluble |
| MGSDKIHHHHHHMKIDRLISIIIVLLRRERVQAKELAEMFGVSVRTILRDVDTINLGGIPIITYQGVNGGISIAEGYRLDKSVLSAGDMATLISTLKGVAASIPDSRFDILAEKLKNPLSTSQLELLDLKSRQMIIDLSPWGTNEQLKGKITLLRQAIENYREIEFAYIDAAGTRSIRQVEPYALLLKGQSWYLFAWCLLRQDFRLFKLIRIKNLQLVNITYQPREVPMEQDYFENQWQETARPVELDLLFDKEMENVVEECFGGDIMRQDDGRIMVKVCLPENNWLYGYLLSFGGGMEVVNPPHIRSILAAIAEKIYKTYSS | not soluble |
| MKTCYYELLGVETHASDLELKKAYRKKALQYHPDKNPDNVEEATQKFAVIRAAYEVLSDPQERAWYDSHKEQILNDTPPSTDDYYDYEVDATVTGVTTDELLLFFNSALYTKIDNSAAGIYQIAGKIFAKLAKDEILSGKRLGKFSEYQDDVFEQDINSIGYLKACDNFINKTDKLLYPLFGYSPTDYEYLKHFYKTWSAFNTLKSFSWKDEYMYSKNYDRRTKREVNRRNEKARQQARNEYNKTVKRFVVFIKKLDKRMKEGAKIAEEQRKLKEQQRKNELNNRRKFGNDNNDEEKFHLQSWQTVKEENWDELEKVYDNFGEFENSKNDKEGEVLIYECFICNKTFKSEKQLKNHINTKLHKKNMEEIRKEMEEENITLGLDNLSDLEKFDSADESVKEKEDIDLQALQAELAEIERKLAESSSEDESEDDNLNIEMDIEVEDVSSDENVHVNTKNKKKRKKKKKAKVDTETEESESFDDTKDKRSNELDDLLASLGDKGLQTDDDEDWSTKAKKKKGKQPKKNSKSTKSTPSLSTLPSSMSPTSAIEVCTTCGESFDSRNKLFNHVKIAGHAAVKNVVKRKKVKTKRI | not soluble |
| MSWIPFKIGQPKKQIVSKTVERDFEREYGKLQQLEEQTKRLQKDMKKSTDADLAMSKSAVKISLDLLSNPLCEQDQDFLRMVTALDTAMKRMDAFNQEKVNQIQKTVIEPLKKFGSIFPSLNMAVKRREQALQDYGRLQAKVEKYEEKEKTGPVLAKLHQAREELRPVREDFEAKNKQLLDEMPRFYNSRLDYFQPSFESLIRAQVIYYSEMHKIFGDLTQQLDQPGHSDEHRERENETKLSELRALSIVADD | not soluble |
| MGSDKIHHHHHHMPQTAFIWDLDGTLIDSYEAIMEALAVTYRTFGFDFQAEPIRRYIIKESVGKLLDILAKQHGLSSEELKTFFIQEQVKRDDKIKLMPFAKEALQWAKDRGIKQFMYTHKGASTGAVLAELGIVSYFTEILTSVSGFERKPHPQGIFYLLEKYHLDRDRTYYIGDRRLDVEVAENAGIKSINLAQPQSAANQKIDNLQVLTQLKDF | not soluble |
| MLRSFTIRTAKRDEMIDITSFVEETVRQANVTEGIAVVYCPHTTAGITINENADPDVKRDMMRRFDETYPWEHPLDRHMEGNTAAHMKASTVGASQHVIIHEGRLLLGRWQGVYFCEYDGPRHRTFYVKVIGG | not soluble |
| MRKMMQNHQNTRFYFSASLILFNDKEMGKRSNYHHLVAFGGFFKALPDDGDLLTRFVTVEKLKKLPHCKFPFFPVKKPSLSPKMQPSYDADDFMRRGFFGSFIGFRKRSSSKPGELYAKNVTYSQIFSRHLID | soluble |
| MSLSHIRPDFPEPYGLPVDGLRGKTSIFSHPVYLFLREFSLQDSRGGSLSKKAESLSSGKITIGTKEKVIIINELRQCHPLSQLLVIADLPRSTFYYHVKRLNAPDPYQLVKQVILRIYHQHKGRYGYRRIRLACRNESILLNGKTIRKLMKELGISSLIRRKKYRTYRGEQGRTCNNLLKRQFYADRPNQKWVTDVTEFKVDGRKLYLSPIMDLYNGEIVSYNLTERPLASMVKSMLLDAVEQLNKDDKPLLHSDQGWQYQMPRWQRWLSDNGITQSMSRRGNCLDNAAMESFFSTLKEGHHHHHH | not soluble |
| MGNQYVKPERTGNSPYTRSGVPPPALVKTGDKPLHRVNDRMSLELHMADERVRAAGLSPAEREWRKKWVHDQHLHADEPVVVDAVHRQLNPIRTAYRLPWDKFYLHYLKPTFGVYYGTAIRVTAPKLLMAFVVVQTAYYYWKYEVKDWTHLRGLESMPQKEVIASAPAIEEKFPGLMDKGLANPSKDDYYTPTFNKRTAYLDVGETKRPW | not soluble |
| MGHHHHHHSHMESLVVGDIAELRPNQGTLSLFTNEAGGILDDLIVTNTSEGHLYVVSNAGCWEKDLALMQDKVRELQNQGRDVGLEVLDNALLALQGPTAAQVLQAGVADDLRKLPFMTSAVMEVFGVSGCRVTRCGYTGEDGVEISVPVAGAVHLATAILKNPEVKLAGLAARDSLRLEAGLCLYGNDIDEHTTPVEGSLSWTLGKRRRAAMDFPGAKVIVPQLKGRVQRRRVGLMCEGAPMRAHSPILNMEGTKIGTVTSGCPSPSLKKNVAMGYVPCEYSRPGTMLLVELPSGPCF | not soluble |
| MGSDKIHHHHHHMRLVLSGYYGFYNVGDEAILQSIIKALYEEEPTLELVVLSNDPDYTRKMYGVEAVNRWDIRAIYKEIKRSSGLISGGGSLLQDKTSIKSILYYTGIMRIARFLKKPYYIYAQGIGPITKRQNRLLVKWQVSKAEYISVRDEDSFLYLKEIGIKKDIELVPDPVLACQSEGMKSEWLQKHSIQGKVIAVSVRYWDAKEDYMKKLADTLKKFKRDGYHILFVPMHGPFDQNASRDIINLMGEEAHMLPYKLDIHEKISIFSECSLLIGMRLHALILSAVANIPMVGISYDPKVDSFLQQVNQPIIGNVDGDWTAETLYNVAMKQLEQKEYIQAKLEQRVEELREQISTASRYIISDLNSKEFKKENVEFHK | not soluble |
| MQGNTMYKFEVFKDKAGEFRFRFRASNGEIMFSSEGYKAKASVLNAIESIKKNSPGAETVDQTTATV | soluble |
| MLIHYIDIAKRNFVIAVSSLSKTKTETNNPKGIAHTIEYLKKHKVALVVTESTGGLEIPAAKAIHRAGIAVIIANPRQTHQFAQSQSLTKTDAKDAKMPAFFAQMKAQKEDWQTMPYHPPTEAEEVLEALVNRRNQSADMRTAEKNRLHQVHETQVGSVKQLIAHFDRLIDESDKQIDDHTHTHFDGKAQVAEQIKGIGSITTATLMAMLPELGRLSHKRIASLVGIAPHPRKSGEAKFKSRCFGGRSAVLKALYMATVAATRFEPLIRDFHQRPLSEGKPYKVAVTACMRKLLETFAKFLSLTTTEIPTQVFGCFRPKYRLILPKHPLNPPRTPDNQASGLPFRRQRAHLACWRLSTGSNTSPSDGFAHSL | not soluble |
| MFRWLFQSEGVTRSFDTPSETQSARDDRKTIGDYADNFLLFDLVMGEVEMAVIRFEIEKEEKEEAERKAERRPDYSWLISGNMNRARKQLSINEKNRIENACERLKPCEWSKTIDTWKIKTQNPSTRDQIIENFVIATHETIQSRKHEPTITEVLKNFATGRSGSLHTVSHGELPRVGSGRNISELSFIELQEMV | not soluble |
| MRKMKSLYLAIQQHESRRWSPVAKVTKNGGVYRLVYTKGAWEVPGFSGFARMEDLYQEYRSAEIFPILKNRTLPRSRPEYQNYILWLGLSPEEHDELDELARSGGIRATDQIELIPAPERKEDGSFEAFFFVRGISYIPGTADIDLKIGDRLFVMKDFQNEQDSAALLLRTGDPVSVVGYAPRYYSHDLSRLAELCPPQDLLVTVERLNNNAPAAYKVLCKVVAPWPAGFDFFGSHVFDEVPKAPVSLEHHHHHH | not soluble |
| MKVIVVGCTHAGTFAVKQTIADHPDADVTAYEMNDNISFLSCGIALYLGKEIKNNDPRGLFYSSPEELSNLGANVQMRHQVTNVDPETKTIKVKDLITNEEKTEAYDKLIMTTGSKPTVPPIPGIDSSRVYLCKNYNDAKKLFEEAPKAKTITIIGSGYIGAELAEAYSNQNYNVNLIDGHERVLYKYFDKEFTDILAKDYEAHGVNLVLGSKVAAFEEVDDEIITKTLDGKEIKSDIAILCIGFRPNTELLKGKVAMLDNGAIITDEYMHSSNRDIFAAGDSAAVHYNPTNSNAYIPLATNAVRQGRLVGLNLTEDKVKDMGTQSSSGLKLYGRTYVSTGINTALAKANNLKVSEVIIADNYRPEFMLSTDEVLMSLVYDPKTRVILGGALSSMHDVSQSANVLSVCIQNKNTIDDLAMVDMLFQPQFDRPFNYLNILGQAAQAQADKAHK | soluble |
| MGSDKIHHHHHHMEKNYYLTKTEQRIFNVIKHAKIITVREVAELFPELSRNMICKALSSLEKKGYLYRIKNGLYLIQQAPTKGSIIIEDPYRIALAMFSGYIAFSSALRLYNLIEYEPFTVFVATPRKSKKVEIDNYIIQAVALGEKATGITLYNGVYTSTLAKTFFDCFYKPQYCGGYETITKALYEAESIDWKEFLDYFKRFASPSLFQRTGYILELMNKELNFKIPKEVLEFFRSKVETKTKLVPTSPSRGKFIKEWKLLDNLGKDKILGWAYGY | not soluble |
